Starred links: 1 amine or outer side, 2 acyl side, 3 side chain; linkers in the order of their positions; H or OH if unused. Non-standard residues stand in square brackets, D forms with d. Groups on a side chain read outwards from the residue. No end group written: not given here. *: point of attachment. γGlu = O=C(O)[C@H](CCC(=O)[*:2])N[*:1]; Palmitoyl = CCCCCCCCCCCCCCCC(=O)*; Aib = CC(C)(N)C(=O)O
Tests used:
[1] = Pharmacokinetics in female Göttingen minipigs; format: in vivo; details: for half-life in plasma: after subcutaneous administration
Protocol: 6 female Göttingen minipigs of average 30000 g weight were used in this study.
Animals had access to food and water ad libitum throughout the entire study period. The animals were dosed with 0.23 mg/kg of a 17.6% suspension of HA-Aib-linker-Seq ID. No.7. Plasma samples were taken at 0, 1, 4, 8, 24, 48, 72, 96, 144, 192, 264, 312, 360, 432, 480 and 528 h. Samples were analysed for the peptide. All quantitative results were determined by LC-MS/MS. For calculation of mean concentrations, values below the lower limit of quantification (LLOQ=0.5 ng/mL in plasma) were set to zero. The pharmacokinetic parameters were calculated by the program WinNonlin 6.4 using a non-compartmental model and linear trapezoidal interpolation calculation.

[2] = Injectability study (load on pre-filled syringe); format: physicochemical; details: 20 mg/mL suspension, 13.5% peptide load, 1 mL BD Neopak PFS, needle 27G×½″ TW, 3.2 mm/s
Protocol: A suspension of HA-peptide conjugate with Seq. ID No. 7 (20 mg/mL in 20 mM acetate buffer, 7.6 mg/mL NaCl, 4 mg/mL soluble (non crosslinked) hyaluronic acid 700 kD, pH 4.8) was manually filled into 1 mL long BD Neopak glass pre-filled syringes (PFS), 600 μL each, and afterwards closed via vacuum stoppering. The filled PFS were loaded into the syringe holder of the equipment and the injection speed was adjusted to […] which equals 3.2 mm/s for the BD Neopak PFS.

[3] = tested on: female diet-induced obese (DIO) C57BL/6N mice; experiment: Body mass after subcutaneous treatment in female diet-induced obese mice; format: in vivo, mouse; details: for mean body weight reduction by day 23 versus the body weight at day 0: days 1, 8, 15, 22, female DIO mice
Protocol: Female C57BL/6N Cr1 mice were used for this study.
Mice were group housed under vivarium conditions that included a 12 h light/dark cycle, room temperatures—of 23±1° C. and a relative humidity between 30-70%. All animals had free access to water and diet (Ssniff adjusted high fat diet: TD.97366) for 18 weeks prior to pharmacological intervention (dosing phase). After pre-feeding period, mice were stratified for body weight to treatment groups with n=8, so that each group has similar mean body weight. At the study start mice were between 25-26 weeks old.
Mice were treated in the morning on days 1, 8, 15 and 22 between 8:00 and 9:00 AM with a s.c. injection of cross-linked hyaluronic acid (“vehicle”) or 100 and 200 nmol/kg/week conjugate (based on peptide content) of SEQ ID NO: 7 using a 30 G needle.
Body weight and food consumption were measured daily throughout the dosing phase. The study was terminated on day 23.
For statistical analyses a One-Way Analysis of Variance (ANOVA) was performed with SigmaStat 3.5. The power of the performed test was alpha=0.050:0.999 and a comparison versus the high fat diet-Vehicle group was performed with Dunnett's Method.

[4] = Pharmacokinetics in female SD rats; format: in vivo, Sprague-Dawley rats
Protocol: 5 female Sprague-Dawley rats were used in this study. Animals had access to food and water ad libitum throughout the entire study period. The animals were dosed with 1.01 mg/kg (peptide content) of a suspension of the conjugate of Seq ID. No.7. Plasma samples were taken at 4, 24, 48, 72, 144, 192, 240 and 336 h. Samples were analysed for the peptide. All quantitative results were determined by LC-MS/MS. For calculation of mean concentrations, values below the lower limit of quantification (LLOQ=2.5 ng/mL in plasma) were set to zero. The pharmacokinetic parameters were calculated by the program WinNonlin 6.4 using a non-compartmental model and linear trapezoidal interpolation calculation.

human GLP-1 receptor = human GLP-1 receptor (human, UniProt P43220 24-463); experiment: cell-based or functional assay
human glucagon receptor = human glucagon receptor (human, UniProt P47871 26-477); experiment: cell-based or functional assay
Sequence of human glucagon receptor (P47871 26-477): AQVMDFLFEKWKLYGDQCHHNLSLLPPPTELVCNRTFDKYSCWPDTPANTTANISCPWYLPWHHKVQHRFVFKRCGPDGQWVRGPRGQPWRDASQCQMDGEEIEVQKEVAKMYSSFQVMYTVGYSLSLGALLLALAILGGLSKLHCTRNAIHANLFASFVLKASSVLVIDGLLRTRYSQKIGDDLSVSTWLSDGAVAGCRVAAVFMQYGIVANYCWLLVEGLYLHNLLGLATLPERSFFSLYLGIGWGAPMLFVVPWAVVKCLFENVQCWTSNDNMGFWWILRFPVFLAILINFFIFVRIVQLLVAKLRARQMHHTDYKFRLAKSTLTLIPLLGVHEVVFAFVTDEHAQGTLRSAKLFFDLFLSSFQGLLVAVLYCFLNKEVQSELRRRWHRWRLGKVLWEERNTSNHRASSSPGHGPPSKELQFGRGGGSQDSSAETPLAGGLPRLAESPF

human GIP receptor = molecular target: T1, human GIP receptor (human, UniProt P48546 22-466); experiment: cell-based or functional assay
T1 sequence (looked up): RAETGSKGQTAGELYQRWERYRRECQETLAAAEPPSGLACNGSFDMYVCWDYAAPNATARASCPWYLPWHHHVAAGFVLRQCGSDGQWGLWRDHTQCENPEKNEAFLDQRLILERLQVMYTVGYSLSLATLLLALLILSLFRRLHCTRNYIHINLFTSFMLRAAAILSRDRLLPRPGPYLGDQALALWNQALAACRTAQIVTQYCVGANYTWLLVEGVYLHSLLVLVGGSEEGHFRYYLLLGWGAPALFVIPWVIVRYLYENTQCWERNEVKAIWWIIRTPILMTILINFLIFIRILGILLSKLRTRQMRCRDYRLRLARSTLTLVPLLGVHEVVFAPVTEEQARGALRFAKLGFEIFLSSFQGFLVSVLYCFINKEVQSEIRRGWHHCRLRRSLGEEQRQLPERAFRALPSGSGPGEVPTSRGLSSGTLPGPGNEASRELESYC

[5] = peptide Seq. NO: 7 in plasma, single s.c. 0.23 mg/kg of 17.6% conjugate (0.04 mg/kg peptide)
[6] = peptide Seq. No. 7 in plasma, single s.c. 1.01 mg/kg (peptide content) conjugate suspension

conjugate of SEQ ID NO: 7: Divinylsulfone-crosslinked hyaluronic acid hydrogel carrying peptide Seq. ID No. 7 via Aib-linker (thiol-maleimide conjugation) (H[Aib]HGTFTSDLSKLK([γGlu-γGlu-Palmitoyl])EEQRQ[Aib]EFIEWLKA[dA]GPPS[Aib]KPPPK-NH2; also: conjugated to divinylsulfone-crosslinked hyaluronic acid hydrogel via Aib-linker (thiol-maleimide), site not given here)
half-life in plasma [1]: around 139 h
half-life in plasma ([1]; same value as in h): 139 h
AUClast [1, 5]: 897 ng·h/mL
Cmax [1, 5]: 4.96 ng/mL
tlast [1, 5]: 344 h
tmax [1, 5]: 100 h
average load [2]: 6.5 N
maximum load [2]: 7.6 N
mean body weight reduction by day 23 versus the body weight at day 0 ([3]; 100 nmol/kg/w s.c. (based on peptide content)): ~17.7±1.3%
mean body weight reduction by day 23 versus the body weight at day 0 ([3]; 200 nmol/kg/w s.c. (based on peptide content)): ~19.5±1.4%
body weight effect of the first administration ([3]; both doses (100 and 200 nmol/kg/week s.c.), p<0.05 vs high-fat diet vehicle): significant body weight-reducing effect that lasted until day 8
half-life in plasma ([4]; after subcutaneous administration, 1.01 mg/kg (peptide content)): around 3 days
AUClast [4, 6]: 1810 ng·h/mL
Cmax [4, 6]: 14.0 ng/mL
tlast [4, 6]: 221 h
tmax [4, 6]: 48.0 h

B1: Peptide of SEQ ID NO: 6 (GLP-1/Glucagon/GIP triple receptor agonist, exendin-4 derivative) (peptide)
peptide: H[Aib]HGTFTSDLSKLK([γGlu-γGlu-Palmitoyl])EEQRQKEFIEWLKAGGHPS[Aib]KPPPK-NH2
modifications: N-terminus assumed
SMILES: CCCCCCCCCCCCCCCC(=O)N[C@@H](CCC(=O)N[C@@H](CCC(=O)NCCCC[C@H](NC(=O)[C@H](CC(C)C)NC(=O)[C@H](CCCCN)NC(=O)[C@H](CO)NC(=O)[C@H](CC(C)C)NC(=O)[C@H](CC(=O)O)NC(=O)[C@H](CO)NC(=O)[C@@H](NC(=O)[C@H](Cc1ccccc1)NC(=O)[C@@H](NC(=O)CNC(=O)[C@H](Cc1c[nH]cn1)NC(=O)C(C)(C)NC(=O)[C@@H](N)Cc1c[nH]cn1)[C@@H](C)O)[C@@H](C)O)C(=O)N[C@@H](CCC(=O)O)C(=O)N[C@@H](CCC(=O)O)C(=O)N[C@@H](CCC(N)=O)C(=O)N[C@@H](CCCNC(=N)N)C(=O)N[C@@H](CCC(N)=O)C(=O)N[C@@H](CCCCN)C(=O)N[C@@H](CCC(=O)O)C(=O)N[C@@H](Cc1ccccc1)C(=O)N[C@H](C(=O)N[C@@H](CCC(=O)O)C(=O)N[C@@H](Cc1c[nH]c2ccccc12)C(=O)N[C@@H](CC(C)C)C(=O)N[C@@H](CCCCN)C(=O)N[C@@H](C)C(=O)NCC(=O)NCC(=O)N[C@@H](Cc1c[nH]cn1)C(=O)N1CCC[C@H]1C(=O)N[C@@H](CO)C(=O)NC(C)(C)C(=O)N[C@@H](CCCCN)C(=O)N1CCC[C@H]1C(=O)N1CCC[C@H]1C(=O)N1CCC[C@H]1C(=O)N[C@@H](CCCCN)C(N)=O)[C@@H](C)CC)C(=O)O)C(=O)O
EC50 hGLP-1R (cAMP response, HTRF, HEK-293 cells) (human GLP-1 receptor): 1.4 pM
EC50 hGlucagon R (cAMP response, HTRF, HEK-293 cells) (human glucagon receptor): 2.3 pM
EC50 hGlP R (cAMP response, HTRF, HEK-293 cells) (human GIP receptor): 2.1 pM

B2: Peptide of SEQ ID NO: 7 (GLP-1/Glucagon/GIP triple receptor agonist, exendin-4 derivative) (peptide)
peptide: H[Aib]HGTFTSDLSKLK([γGlu-γGlu-Palmitoyl])EEQRQ[Aib]EFIEWLKA[dA]GPPS[Aib]KPPPK-NH2
modifications: N-terminus assumed
SMILES: CCCCCCCCCCCCCCCC(=O)N[C@@H](CCC(=O)N[C@@H](CCC(=O)NCCCC[C@H](NC(=O)[C@H](CC(C)C)NC(=O)[C@H](CCCCN)NC(=O)[C@H](CO)NC(=O)[C@H](CC(C)C)NC(=O)[C@H](CC(=O)O)NC(=O)[C@H](CO)NC(=O)[C@@H](NC(=O)[C@H](Cc1ccccc1)NC(=O)[C@@H](NC(=O)CNC(=O)[C@H](Cc1c[nH]cn1)NC(=O)C(C)(C)NC(=O)[C@@H](N)Cc1c[nH]cn1)[C@@H](C)O)[C@@H](C)O)C(=O)N[C@@H](CCC(=O)O)C(=O)N[C@@H](CCC(=O)O)C(=O)N[C@@H](CCC(N)=O)C(=O)N[C@@H](CCCNC(=N)N)C(=O)N[C@@H](CCC(N)=O)C(=O)NC(C)(C)C(=O)N[C@@H](CCC(=O)O)C(=O)N[C@@H](Cc1ccccc1)C(=O)N[C@H](C(=O)N[C@@H](CCC(=O)O)C(=O)N[C@@H](Cc1c[nH]c2ccccc12)C(=O)N[C@@H](CC(C)C)C(=O)N[C@@H](CCCCN)C(=O)N[C@@H](C)C(=O)N[C@H](C)C(=O)NCC(=O)N1CCC[C@H]1C(=O)N1CCC[C@H]1C(=O)N[C@@H](CO)C(=O)NC(C)(C)C(=O)N[C@@H](CCCCN)C(=O)N1CCC[C@H]1C(=O)N1CCC[C@H]1C(=O)N1CCC[C@H]1C(=O)N[C@@H](CCCCN)C(N)=O)[C@@H](C)CC)C(=O)O)C(=O)O
EC50 hGLP-1R (cAMP response, HTRF, HEK-293 cells) (human GLP-1 receptor): 2.9 pM
EC50 hGlucagon R (cAMP response, HTRF, HEK-293 cells) (human glucagon receptor): 2.1 pM
EC50 hGlP R (cAMP response, HTRF, HEK-293 cells) (human GIP receptor): 1.5 pM

Source: patent US20200023070A1, “CONJUGATES COMPRISING AN GLP-1/GLUCAGON/GIP TRIPLE RECEPTOR AGONIST, A LINKER AND HYALURONIC ACID” (SANOFI, priority 2018, published 2020)
